Experiment in all cases: SEC-MALS
Background: Size exclusion chromatography separates by hydrodynamic size, large species first.

Data set [1] concerns the target T1, full-length NEIL1 DNA glycosylase, His-tagged (human, UniProt Q96FI4 1-390).
Data set [2] deals with the molecule itself.
Data set [3] addresses T1, full-length NEIL1 DNA glycosylase, …. The source holds these as a separate data set.

Read-outs that look alike come from different tables or passages of the source.

T1 sequence (Q96FI4 whole entry): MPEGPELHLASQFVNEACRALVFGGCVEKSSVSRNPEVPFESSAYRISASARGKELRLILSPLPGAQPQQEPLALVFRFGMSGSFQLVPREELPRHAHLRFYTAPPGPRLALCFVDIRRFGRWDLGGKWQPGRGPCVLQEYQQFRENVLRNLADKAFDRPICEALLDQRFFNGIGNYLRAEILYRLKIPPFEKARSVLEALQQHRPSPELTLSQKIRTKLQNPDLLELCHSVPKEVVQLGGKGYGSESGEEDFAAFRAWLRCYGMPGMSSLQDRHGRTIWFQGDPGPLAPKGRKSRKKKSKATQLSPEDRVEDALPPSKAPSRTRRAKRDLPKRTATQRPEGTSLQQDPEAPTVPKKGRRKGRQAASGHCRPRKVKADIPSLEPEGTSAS

B1: human mitochondrial single-stranded DNA binding protein, purified recombinant (natural protein, UniProt Q04837 17-148, looked up)
chain: ESETTTSLVLERSLNRVHLLGRVGQDPVLRQVEGKNPVTIFSLATNEMWRSGDSEVYQLGDVSQKTTWHRISVFRPGLRDVAYQYVKKGSRIYLEGKIDYGEYMDKNNVRRQATTIIADNIIFLSDQTKEKE
Regarding B1, the “stoichiometry N” value is 1 mtSSB tetramer per NEIL1 (with one DNA) in data set [1], 4 in data set [2] and 1 mtSSB monomer per NEIL1 in data set [3].

Source of the values: PMC5911420 (DNA repair, 2018).
